Starred links: 1 amine or outer side, 2 acyl side, 3 side chain; linkers in the order of their positions; H or OH if unused. Non-standard residues stand in square brackets, D forms with d. No end group written: not given here. (R)β21Nal = (R)-β2-1-naphthylalanine, O=C([C@@H](CN[*:1])Cc1cccc2ccccc12)[*:2]; (R)β31Nal = (R)-β3-1-naphthylalanine, O=C(C[C@@H](Cc1cccc2ccccc12)N[*:1])[*:2]; Dmt = Cc1cc(O)cc(C)c1C[C@H](N)C(=O)O
B1: EM-2 analog 11 (Dmt-Pro-(R)-β2-1-Nal-Phe-NH2) (peptide)
chain: [Dmt]P[(R)β21Nal]F-NH2
modifications: N-terminus assumed
SMILES: Cc1cc(O)cc(C)c1C[C@H](N)C(=O)N1CCC[C@H]1C(=O)NC[C@@H](Cc1cccc2ccccc12)C(=O)N[C@@H](Cc1ccccc1)C(N)=O
B2: EM-2 analog 13 (Dmt-Pro-(R)-β3-1-Nal-Phe-NH2) (peptide)
chain: [Dmt]P[(R)β31Nal]F-NH2
modifications: N-terminus assumed
SMILES: Cc1cc(O)cc(C)c1C[C@H](N)C(=O)N1CCC[C@H]1C(=O)N[C@@H](CC(=O)N[C@@H](Cc1ccccc1)C(N)=O)Cc1cccc2ccccc12
B3: EM-2 analog 12 (Tyr-Pro-(R)-β3-1-Nal-Phe-NH2) (peptide)
chain: YP[(R)β31Nal]F-NH2
modifications: N-terminus assumed
SMILES: NC(=O)[C@H](Cc1ccccc1)NC(=O)C[C@@H](Cc1cccc2ccccc12)NC(=O)[C@@H]1CCCN1C(=O)[C@@H](N)Cc1ccc(O)cc1
B4: EM-2 analog 10 (Tyr-Pro-(R)-β2-1-Nal-Phe-NH2) (peptide)
chain: YP[(R)β21Nal]F-NH2
modifications: N-terminus assumed
SMILES: NC(=O)[C@H](Cc1ccccc1)NC(=O)[C@@H](CNC(=O)[C@@H]1CCCN1C(=O)[C@@H](N)Cc1ccc(O)cc1)Cc1cccc2ccccc12

Biological target: T1, human mu opioid receptor (human, UniProt P35372 1-400)
Assay: cell-based or functional assay
Details: not given

T1 sequence (P35372 whole entry): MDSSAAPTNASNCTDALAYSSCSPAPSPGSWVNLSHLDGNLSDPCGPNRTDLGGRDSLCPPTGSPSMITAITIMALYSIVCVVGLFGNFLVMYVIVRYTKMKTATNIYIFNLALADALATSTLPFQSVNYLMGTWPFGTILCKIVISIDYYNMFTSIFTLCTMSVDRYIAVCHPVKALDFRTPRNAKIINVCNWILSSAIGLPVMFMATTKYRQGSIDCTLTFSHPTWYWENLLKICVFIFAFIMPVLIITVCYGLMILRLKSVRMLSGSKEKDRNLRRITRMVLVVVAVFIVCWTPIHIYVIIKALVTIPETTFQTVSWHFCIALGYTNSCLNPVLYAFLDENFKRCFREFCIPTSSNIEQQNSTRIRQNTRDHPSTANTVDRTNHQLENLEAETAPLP

| Binder | calcium mobilization, CHO cells with human mu receptor and Gαqi5: α (Emax ratio to the standard agonist) |
| --- | --- |
| B1 | 0.57 |
| B2 | 0.77 |
| B3 | 0.97 |
| B4 | 0.25 |

Biological target: T1, human mu opioid receptor
Assay: radioligand binding; displacement of [3H]DAMGO from commercial membranes of CHO cells transfected with the human recombinant mu opioid receptor; Ki, mean ± SEM, n ≥ 3
Details: one partner purified

| Binder | Ki [nM] |
| --- | --- |
| B1 | 9.54 |
| B2 | 2.75 |
| B3 | 32.1 |
| B4 | 34.9 |

Biological target: T2, human kappa opioid receptor (human, UniProt P41145 1-380)
T2 construct: kappa opioid receptor, human recombinant, in membranes of transfected CHO cells; also called kappa receptor; source: commercial membranes of CHO cells transfected with human recombinant opioid receptors
Assay: radioligand binding; displacement of [3H]U-69593 from commercial membranes of CHO cells transfected with the human recombinant kappa opioid receptor; Ki, mean ± SEM, n ≥ 3
Details: one partner purified

T2 sequence (P41145 whole entry): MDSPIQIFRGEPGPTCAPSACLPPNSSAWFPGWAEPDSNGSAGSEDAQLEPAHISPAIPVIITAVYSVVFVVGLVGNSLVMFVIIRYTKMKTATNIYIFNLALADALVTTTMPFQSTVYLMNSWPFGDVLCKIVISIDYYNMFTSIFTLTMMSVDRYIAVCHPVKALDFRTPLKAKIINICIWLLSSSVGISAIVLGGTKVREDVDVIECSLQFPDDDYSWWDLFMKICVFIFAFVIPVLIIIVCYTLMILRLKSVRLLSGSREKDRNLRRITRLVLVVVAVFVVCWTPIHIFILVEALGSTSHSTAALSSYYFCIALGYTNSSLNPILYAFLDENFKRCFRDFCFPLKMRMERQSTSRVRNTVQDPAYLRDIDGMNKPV

| Binder | Ki [nM] |
| --- | --- |
| B1 | > 1000 |
| B2 | 915 |
| B3 | > 1000 |
| B4 | > 1000 |

Biological target: T3, human delta opioid receptor (human, UniProt P41143 1-372)
T3 construct: delta opioid receptor, human recombinant, in membranes of transfected CHO cells; also called delta receptor; source: commercial membranes of CHO cells transfected with human recombinant opioid receptors
Assay: radioligand binding; displacement of [3H]deltorphin-2 from commercial membranes of CHO cells transfected with the human recombinant delta opioid receptor; Ki, mean ± SEM, n ≥ 3
Details: one partner purified

T3 sequence (P41143 whole entry, stated change not applied): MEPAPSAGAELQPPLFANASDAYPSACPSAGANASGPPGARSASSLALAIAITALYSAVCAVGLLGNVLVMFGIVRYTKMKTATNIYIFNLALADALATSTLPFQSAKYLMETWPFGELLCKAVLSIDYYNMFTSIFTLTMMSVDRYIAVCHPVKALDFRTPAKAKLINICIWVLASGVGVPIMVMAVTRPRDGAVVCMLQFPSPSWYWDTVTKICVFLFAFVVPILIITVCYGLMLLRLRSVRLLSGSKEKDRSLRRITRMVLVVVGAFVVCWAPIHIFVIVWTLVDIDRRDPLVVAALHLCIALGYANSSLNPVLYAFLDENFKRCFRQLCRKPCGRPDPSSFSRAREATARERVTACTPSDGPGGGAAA

| Binder | Ki [nM] |
| --- | --- |
| B1 | 675 |
| B2 | 722 |
| B3 | > 1000 |
| B4 | > 1000 |

— article PMC9998502, “Functional selectivity of EM-2 analogs at the mu-opioid receptor” (Frontiers in Pharmacology, 2023)
